From patent US20250361268A1, “NOVEL ANTI-INFLAMMATORY PEPTIDE AND USE THEREOF” (NOVACELL TECHNOLOGY INC., priority 2022, published 2025)

B1: peptide of SEQ ID NO 101 (peptide)
peptide: RWRYWVM
HELM: PEPTIDE1{R.W.R.Y.W.V.[dM].[am]}$$$$V2.0; N-terminus assumed
SMILES: CSCC[C@@H](NC(=O)[C@@H](NC(=O)[C@H](Cc1c[nH]c2ccccc12)NC(=O)[C@H](Cc1ccc(O)cc1)NC(=O)[C@H](CCCNC(=N)N)NC(=O)[C@H](Cc1c[nH]c2ccccc12)NC(=O)[C@@H](N)CCCNC(=N)N)C(C)C)C(N)=O
B2: peptide of SEQ ID NO 110 (peptide)
peptide: MRYWPM
HELM: PEPTIDE1{M.R.Y.W.P.[dM].[am]}$$$$V2.0; N-terminus assumed
SMILES: CSCC[C@H](N)C(=O)N[C@@H](CCCNC(=N)N)C(=O)N[C@@H](Cc1ccc(O)cc1)C(=O)N[C@@H](Cc1c[nH]c2ccccc12)C(=O)N1CCC[C@H]1C(=O)N[C@H](CCSC)C(N)=O
B3: peptide of SEQ ID NO 106 (peptide)
peptide: RMRYWPM
HELM: PEPTIDE1{R.M.R.Y.W.P.[dM].[am]}$$$$V2.0; N-terminus assumed
SMILES: CSCC[C@H](NC(=O)[C@@H](N)CCCNC(=N)N)C(=O)N[C@@H](CCCNC(=N)N)C(=O)N[C@@H](Cc1ccc(O)cc1)C(=O)N[C@@H](Cc1c[nH]c2ccccc12)C(=O)N1CCC[C@H]1C(=O)N[C@H](CCSC)C(N)=O
B4: peptide of SEQ ID NO 96 (peptide)
peptide: KWKYYVM
HELM: PEPTIDE1{K.W.K.Y.Y.V.[dM].[am]}$$$$V2.0; N-terminus assumed
SMILES: CSCC[C@@H](NC(=O)[C@@H](NC(=O)[C@H](Cc1ccc(O)cc1)NC(=O)[C@H](Cc1ccc(O)cc1)NC(=O)[C@H](CCCCN)NC(=O)[C@H](Cc1c[nH]c2ccccc12)NC(=O)[C@@H](N)CCCCN)C(C)C)C(N)=O
B5: peptide of SEQ ID NO 102 (peptide)
peptide: WRYWVM
HELM: PEPTIDE1{[ac].W.R.Y.W.V.[dM].[am]}$$$$V2.0
SMILES: CSCC[C@@H](NC(=O)[C@@H](NC(=O)[C@H](Cc1c[nH]c2ccccc12)NC(=O)[C@H](Cc1ccc(O)cc1)NC(=O)[C@H](CCCNC(=N)N)NC(=O)[C@H](Cc1c[nH]c2ccccc12)NC(C)=O)C(C)C)C(N)=O
B6: peptide of SEQ ID NO 105 (peptide)
peptide: MRYWVM
HELM: PEPTIDE1{[ac].M.R.Y.W.V.[dM].[am]}$$$$V2.0
SMILES: CSCC[C@H](NC(C)=O)C(=O)N[C@@H](CCCNC(=N)N)C(=O)N[C@@H](Cc1ccc(O)cc1)C(=O)N[C@@H](Cc1c[nH]c2ccccc12)C(=O)N[C@H](C(=O)N[C@H](CCSC)C(N)=O)C(C)C
B7: peptide of SEQ ID NO 104 (peptide)
peptide: RMRYWVM
HELM: PEPTIDE1{[ac].R.M.R.Y.W.V.[dM].[am]}$$$$V2.0
SMILES: CSCC[C@H](NC(=O)[C@H](CCCNC(=N)N)NC(C)=O)C(=O)N[C@@H](CCCNC(=N)N)C(=O)N[C@@H](Cc1ccc(O)cc1)C(=O)N[C@@H](Cc1c[nH]c2ccccc12)C(=O)N[C@H](C(=O)N[C@H](CCSC)C(N)=O)C(C)C
B8: peptide of SEQ ID NO 98 (peptide)
peptide: RMRYYVM
HELM: PEPTIDE1{[ac].R.M.R.Y.Y.V.[dM].[am]}$$$$V2.0
SMILES: CSCC[C@H](NC(=O)[C@H](CCCNC(=N)N)NC(C)=O)C(=O)N[C@@H](CCCNC(=N)N)C(=O)N[C@@H](Cc1ccc(O)cc1)C(=O)N[C@@H](Cc1ccc(O)cc1)C(=O)N[C@H](C(=O)N[C@H](CCSC)C(N)=O)C(C)C
B9: peptide of SEQ ID NO 112 (peptide)
peptide: MRYWPM
HELM: PEPTIDE1{[CCCC(=O)[*:2]].M.R.Y.W.P.[dM].[am]}$$$$V2.0
SMILES: CCCC(=O)N[C@@H](CCSC)C(=O)N[C@@H](CCCNC(=N)N)C(=O)N[C@@H](Cc1ccc(O)cc1)C(=O)N[C@@H](Cc1c[nH]c2ccccc12)C(=O)N1CCC[C@H]1C(=O)N[C@H](CCSC)C(N)=O
B10: peptide of SEQ ID NO 111 (peptide)
peptide: MRYWPM
HELM: PEPTIDE1{[ac].M.R.Y.W.P.[dM].[am]}$$$$V2.0
SMILES: CSCC[C@H](NC(C)=O)C(=O)N[C@@H](CCCNC(=N)N)C(=O)N[C@@H](Cc1ccc(O)cc1)C(=O)N[C@@H](Cc1c[nH]c2ccccc12)C(=O)N1CCC[C@H]1C(=O)N[C@H](CCSC)C(N)=O
B11: peptide of SEQ ID NO 100 (peptide)
peptide: MRYYVM
HELM: PEPTIDE1{M.R.Y.Y.V.[dM].[am]}$$$$V2.0; N-terminus assumed
SMILES: CSCC[C@H](N)C(=O)N[C@@H](CCCNC(=N)N)C(=O)N[C@@H](Cc1ccc(O)cc1)C(=O)N[C@@H](Cc1ccc(O)cc1)C(=O)N[C@H](C(=O)N[C@H](CCSC)C(N)=O)C(C)C
B12: peptide of SEQ ID NO 108 (peptide)
peptide: RMRYWPM
HELM: PEPTIDE1{[CCCC(=O)[*:2]].R.M.R.Y.W.P.[dM].[am]}$$$$V2.0
SMILES: CCCC(=O)N[C@@H](CCCNC(=N)N)C(=O)N[C@@H](CCSC)C(=O)N[C@@H](CCCNC(=N)N)C(=O)N[C@@H](Cc1ccc(O)cc1)C(=O)N[C@@H](Cc1c[nH]c2ccccc12)C(=O)N1CCC[C@H]1C(=O)N[C@H](CCSC)C(N)=O
B13: peptide of SEQ ID NO 109 (peptide)
peptide: RMRYWPM
HELM: PEPTIDE1{[CCCCCCCC(=O)[*:2]].R.M.R.Y.W.P.[dM].[am]}$$$$V2.0
SMILES: CCCCCCCC(=O)N[C@@H](CCCNC(=N)N)C(=O)N[C@@H](CCSC)C(=O)N[C@@H](CCCNC(=N)N)C(=O)N[C@@H](Cc1ccc(O)cc1)C(=O)N[C@@H](Cc1c[nH]c2ccccc12)C(=O)N1CCC[C@H]1C(=O)N[C@H](CCSC)C(N)=O
B14: peptide of SEQ ID NO 97 (peptide)
peptide: RMRYYVM
HELM: PEPTIDE1{R.M.R.Y.Y.V.[dM].[am]}$$$$V2.0; N-terminus assumed
SMILES: CSCC[C@H](NC(=O)[C@@H](N)CCCNC(=N)N)C(=O)N[C@@H](CCCNC(=N)N)C(=O)N[C@@H](Cc1ccc(O)cc1)C(=O)N[C@@H](Cc1ccc(O)cc1)C(=O)N[C@H](C(=O)N[C@H](CCSC)C(N)=O)C(C)C
B15: peptide of SEQ ID NO 107 (peptide)
peptide: RMRYWPM
HELM: PEPTIDE1{[ac].R.M.R.Y.W.P.[dM].[am]}$$$$V2.0
SMILES: CSCC[C@H](NC(=O)[C@H](CCCNC(=N)N)NC(C)=O)C(=O)N[C@@H](CCCNC(=N)N)C(=O)N[C@@H](Cc1ccc(O)cc1)C(=O)N[C@@H](Cc1c[nH]c2ccccc12)C(=O)N1CCC[C@H]1C(=O)N[C@H](CCSC)C(N)=O

Target: T1, formyl peptide receptor 2 (FPR2) (UniProt P25090 1-351, limits assumed)
T1 sequence (looked up): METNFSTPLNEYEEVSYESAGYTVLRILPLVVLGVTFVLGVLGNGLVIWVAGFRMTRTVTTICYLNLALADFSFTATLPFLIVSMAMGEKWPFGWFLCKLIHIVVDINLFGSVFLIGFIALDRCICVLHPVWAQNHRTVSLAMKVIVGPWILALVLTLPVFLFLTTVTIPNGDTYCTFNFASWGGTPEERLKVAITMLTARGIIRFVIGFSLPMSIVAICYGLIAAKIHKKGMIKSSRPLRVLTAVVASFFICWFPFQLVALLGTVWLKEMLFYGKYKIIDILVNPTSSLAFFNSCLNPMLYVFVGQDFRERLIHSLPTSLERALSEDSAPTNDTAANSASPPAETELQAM
Assay: cell-based or functional assay

EC50 for [Ca2+], < 10 nM:
B1
B2
B3
B4
B5
B6
B7
B8
B9
B10
B11
B12
B13
B14
B15
